Data from patent US20180244758A1 (MAPP BIOPHARMACEUTICAL, published 2018).

How the values were obtained:
Experiment in all cases: cell-based or functional assay
[1] = molecular target: T1, TAFV GP on VSV pseudotype particles (Tai Forest virus (TAFV), UniProt Q66810 33-676)
T1 sequence: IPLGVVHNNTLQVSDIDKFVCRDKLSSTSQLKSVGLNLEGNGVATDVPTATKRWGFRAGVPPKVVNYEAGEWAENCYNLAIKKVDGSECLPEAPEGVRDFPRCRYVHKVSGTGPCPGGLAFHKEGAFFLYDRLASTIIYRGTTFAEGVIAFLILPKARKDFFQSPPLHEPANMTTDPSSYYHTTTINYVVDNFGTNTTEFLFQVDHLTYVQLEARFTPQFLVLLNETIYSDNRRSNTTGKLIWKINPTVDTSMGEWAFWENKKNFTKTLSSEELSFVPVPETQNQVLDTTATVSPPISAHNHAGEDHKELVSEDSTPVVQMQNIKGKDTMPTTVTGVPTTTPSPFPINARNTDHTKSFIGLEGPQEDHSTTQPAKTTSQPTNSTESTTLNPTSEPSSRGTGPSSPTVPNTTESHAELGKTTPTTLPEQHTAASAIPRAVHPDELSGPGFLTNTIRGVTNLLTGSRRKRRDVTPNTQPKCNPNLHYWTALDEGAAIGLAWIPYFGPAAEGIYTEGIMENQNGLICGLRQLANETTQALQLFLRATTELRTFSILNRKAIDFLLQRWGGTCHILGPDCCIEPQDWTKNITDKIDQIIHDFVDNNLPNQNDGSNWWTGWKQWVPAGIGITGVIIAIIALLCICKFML

[2] = molecular target: T2, EBOV GP on rVSV particles (Ebola virus (EBOV), UniProt Q05320 33-676)
T2 sequence: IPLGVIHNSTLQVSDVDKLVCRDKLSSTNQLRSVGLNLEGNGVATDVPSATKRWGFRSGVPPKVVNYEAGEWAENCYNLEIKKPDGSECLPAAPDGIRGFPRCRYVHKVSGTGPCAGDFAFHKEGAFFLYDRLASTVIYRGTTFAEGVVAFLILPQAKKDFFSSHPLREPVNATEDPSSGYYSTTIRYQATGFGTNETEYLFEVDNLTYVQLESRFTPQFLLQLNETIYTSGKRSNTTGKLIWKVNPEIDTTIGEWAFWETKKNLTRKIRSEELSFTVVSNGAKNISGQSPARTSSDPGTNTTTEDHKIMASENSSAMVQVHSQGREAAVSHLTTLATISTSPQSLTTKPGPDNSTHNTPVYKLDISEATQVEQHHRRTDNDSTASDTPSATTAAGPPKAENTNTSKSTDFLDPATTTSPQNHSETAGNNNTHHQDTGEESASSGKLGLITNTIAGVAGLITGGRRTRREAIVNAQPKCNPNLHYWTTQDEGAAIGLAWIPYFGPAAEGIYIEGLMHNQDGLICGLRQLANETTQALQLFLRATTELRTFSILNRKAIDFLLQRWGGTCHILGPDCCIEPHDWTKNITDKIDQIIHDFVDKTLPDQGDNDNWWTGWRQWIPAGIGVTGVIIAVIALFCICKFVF

[3] = molecular target: BDBV GP on rVSV particles (Bundibugyo virus (BDBV))
[4] = molecular target: T3, RESTV GP on rVSV particles (Reston virus (RESTV), UniProt Q66799 34-677)
T3 sequence: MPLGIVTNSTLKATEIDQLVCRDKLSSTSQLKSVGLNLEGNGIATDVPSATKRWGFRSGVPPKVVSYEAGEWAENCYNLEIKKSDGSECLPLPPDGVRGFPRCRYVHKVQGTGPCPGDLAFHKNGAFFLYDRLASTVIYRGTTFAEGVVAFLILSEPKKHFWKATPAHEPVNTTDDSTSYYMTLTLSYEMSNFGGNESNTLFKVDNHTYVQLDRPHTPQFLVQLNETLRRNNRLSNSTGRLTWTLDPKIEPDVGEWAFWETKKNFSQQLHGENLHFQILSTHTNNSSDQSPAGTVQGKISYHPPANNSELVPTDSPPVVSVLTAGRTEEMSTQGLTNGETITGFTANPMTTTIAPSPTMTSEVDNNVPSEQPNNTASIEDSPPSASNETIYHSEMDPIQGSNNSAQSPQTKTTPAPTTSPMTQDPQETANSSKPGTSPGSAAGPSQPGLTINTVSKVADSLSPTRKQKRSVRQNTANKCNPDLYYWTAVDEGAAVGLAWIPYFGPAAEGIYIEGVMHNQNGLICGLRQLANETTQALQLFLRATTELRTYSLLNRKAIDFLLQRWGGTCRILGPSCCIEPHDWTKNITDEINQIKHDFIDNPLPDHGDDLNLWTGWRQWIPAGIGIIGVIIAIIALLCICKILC

[5] = molecular target: T4, SUDV GP on rVSV particles (Sudan virus (SUDV), UniProt Q66814 33-676)
T4 sequence: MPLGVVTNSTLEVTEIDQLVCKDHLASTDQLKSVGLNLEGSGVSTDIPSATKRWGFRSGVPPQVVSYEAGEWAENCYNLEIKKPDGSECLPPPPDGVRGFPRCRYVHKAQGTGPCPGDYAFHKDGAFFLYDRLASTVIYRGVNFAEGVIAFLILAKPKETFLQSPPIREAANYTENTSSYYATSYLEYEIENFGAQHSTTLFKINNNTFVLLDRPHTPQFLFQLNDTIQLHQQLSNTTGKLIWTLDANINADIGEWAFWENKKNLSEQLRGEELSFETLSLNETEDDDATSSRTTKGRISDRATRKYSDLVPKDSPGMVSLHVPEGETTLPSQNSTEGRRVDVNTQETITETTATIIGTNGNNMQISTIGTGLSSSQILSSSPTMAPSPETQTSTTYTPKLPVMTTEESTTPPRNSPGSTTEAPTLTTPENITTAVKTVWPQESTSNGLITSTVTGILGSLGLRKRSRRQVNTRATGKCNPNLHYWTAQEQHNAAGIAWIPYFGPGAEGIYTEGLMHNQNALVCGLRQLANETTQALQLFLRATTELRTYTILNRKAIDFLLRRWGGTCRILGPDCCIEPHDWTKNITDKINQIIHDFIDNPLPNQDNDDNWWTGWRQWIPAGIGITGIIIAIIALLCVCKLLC

B1: PE-87 D110A (antibody, V domains shown)
VH: QVQLVQSGVTLVQPGGSLRVSCAASGFTFSSYAMSWVRQAPGKGLEWVSAISGLGGSTYYADSVKGRFTISRDNSKNTLYLQMNSLRAEDTAVYYCAKDHRVWAAGYHFAYWGQGALVTVSS
VL: DIVLTQSPSTLSASVGDRVTITCRASQSISSWLAWYQQKPGEAPKLLISDASSLESGVPSRFSGSGSGTEFTLTISSLQPDDFATYYCQQYYSSPTFGGGTKVEIK
- IC50 (nM), neutralization of rVSV-GP [1]: 2.1 nM
- IC50 (nM), neutralization of rVSV-GP [2]: 2 nM
- IC50 (nM), neutralization of rVSV-GP [3]: 0.9 nM
- IC50 (nM), neutralization of rVSV-GP [4]: 0.4 nM
- IC50 (nM), neutralization of rVSV-GP [5]: 1.5 nM

B2: PE-87 Y111A (antibody, V domains shown)
VH: QVQLVQSGVTLVQPGGSLRVSCAASGFTFSSYAMSWVRQAPGKGLEWVSAISGLGGSTYYADSVKGRFTISRDNSKNTLYLQMNSLRAEDTAVYYCAKDHRVWAAGYHFDAWGQGALVTVSS
VL: DIVLTQSPSTLSASVGDRVTITCRASQSISSWLAWYQQKPGEAPKLLISDASSLESGVPSRFSGSGSGTEFTLTISSLQPDDFATYYCQQYYSSPTFGGGTKVEIK
- IC50 (nM), neutralization of rVSV-GP [1]: 1.1 nM
- IC50 (nM), neutralization of rVSV-GP [2]: 0.8 nM
- IC50 (nM), neutralization of rVSV-GP [3]: 0.4 nM
- IC50 (nM), neutralization of rVSV-GP [4]: 0.1 nM
- IC50 (nM), neutralization of rVSV-GP [5]: 0.8 nM
